Test results published in patent publication US20160031967A1 (Affibody, published 2016).
Where a chain is given by its changes, count along the chain named. Each block holds one binder with its values, some of them ahead of it.

Key:
[1] = target: T1, human FcRn (Biorbyt, cat. no. orb84388) (human, UniProt P55899 24-297; P61769 21-119, limits assumed); assay: ELISA titration of biotinylated human FcRn, pH 7.4
T1 construct: Bought protein; Biotinylated in AlphaLISA and ELISA; also called biotinylated human FcRn
Method: (§1) ELISA KD analysis of FcRn binding Z variants: A selection of FcRn binders was subjected to an analysis of the response against a dilution series of biotinylated human FcRn using ELISA at both pH 6.0 and pH 7.4 as described above. […] As a background control, all Z variants were also assayed with no target protein added. […] Data were analyzed using GraphPad Prism 5 and non-linear regression and KD values (the half maximal effective concentration) were calculated.
(§2) Periplasm samples were incubated with a serial dilution of biotinylated human FcRn.

[2] = target: T1, human FcRn (Biorbyt, cat. no. orb84388); assay: ELISA titration of biotinylated human FcRn, pH 6.0
Method: as §1, §2

- Kd [1]: 2.3 nM
- Kd [2]: 1.2 nM
B1: Z13586-ABD fusion (designed binder)
chain: AQHDEALEVDAKYAKELKDAGHEIRWLPNLTFDQRVAFIHKLRDDPSQSSELLSEAKKLNDSQAPKVDYVLAEAKVLANRELDKYGVSDYYKNLINNAKTVEGVKALIDEILAALPYVPG
notes: domain: GA3; periplasmic Z-ABD fusion

- Kd [1]: 2.2 nM
- Kd [2]: 1.4 nM
B2: Z13783-ABD fusion (designed binder)
chain: B1 chain with L17I, K18E, D19Q
notes: as for B1
